Results: paper PMC2172957

Target: neuronal receptor for agrin (mouse (endogenous in cortical neurons))
Test: immunostaining of cells or tissue

reduction of C-Ag20z8 labeling at a 1:1 molar ratio of C-Ag20z8 to rC-Ag (y4z8): 30%
Substance: rC-Ag_(y4z8), soluble 95-kD COOH-terminal fragment of rat agrin (domain or fragment)
